Results reported in paper PMC9214829.

Target: proteasome regulatory particle (S. cerevisiae) (UniProt P33299)
Assay: co-IP

UniProt P33299, sequence (P33299 whole entry, looked up): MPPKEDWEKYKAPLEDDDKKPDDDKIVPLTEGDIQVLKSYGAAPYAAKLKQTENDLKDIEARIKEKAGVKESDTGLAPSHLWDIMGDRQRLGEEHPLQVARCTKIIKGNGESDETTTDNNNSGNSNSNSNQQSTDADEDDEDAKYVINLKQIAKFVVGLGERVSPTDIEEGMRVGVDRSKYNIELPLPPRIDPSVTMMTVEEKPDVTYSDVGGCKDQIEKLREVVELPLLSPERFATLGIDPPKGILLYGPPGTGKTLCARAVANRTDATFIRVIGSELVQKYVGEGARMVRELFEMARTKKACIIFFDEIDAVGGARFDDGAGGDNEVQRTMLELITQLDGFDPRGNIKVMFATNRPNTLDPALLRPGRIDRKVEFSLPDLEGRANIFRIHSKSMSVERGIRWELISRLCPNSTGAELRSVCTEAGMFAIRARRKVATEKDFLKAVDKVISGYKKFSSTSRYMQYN

Rpn14 (from UniProt P53196 1-417) (natural protein)
relative % of RP-bound chaperone in wild type (not4Δ set as 100%): 20%
